According to patent US12214052 (HOSPITAL FOR SICK CHILDREN, dated 2025):
Substitutions are numbered along the chain they refer to.

T1: NANP 5-mer peptide (NANP5) (Plasmodium falciparum)
T1 peptide: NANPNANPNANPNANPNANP

B1: 1210 Fab (Fab, V domains shown)
VH: QVQLVESGGGVVQPGRSLRLSCAASGFTFSNYGMHWVRQAPGKGLEWVAVIWYDGSKKYYADSVKGRFTISRDNSKNTLYLQMNSLRAEDTAVYYCARVRDSSDYYGDAFDIWGQGTMVTVSS
VL: DIQMTQSPSTLSASVGDRVTITCRASQSISSWLAWYQQKPGKAPKLLIYKASNLESGVPLRFSGSGSGTEFTLTISSLQPDDFATYYCQQYNNYWTFGQGTKVEIK
B2: 1210 H.D100Ymut_K.N92Ymut (1210_YY) Fab (Fab, V domains shown)
VH: B1 VH with D104Y
VL: B1 VL with N92Y
B3: 1210_H.K56_Nrev_K.N93_Srev (1210_NS) Fab (Fab, V domains shown)
VH: B1 VH with K57N
VL: B1 VL with N93S
B4: 1210_GL Fab (Fab, V domains shown)
VH: B1 VH with N31S, K57N
VL: not shown

Target: T1, NANP 5-mer peptide (NANP5)
Assay: ITC
Protocol: Calorimetric titration experiments were performed with an Auto-iTC200 instrument (Malvern) at 25° C. Proteins were dialyzed against 20 mM Tris pH 8.0 and 150 mM sodium chloride overnight at 4° C. […] Experiments were performed at least three times and the mean and standard error of the mean were reported (FIG. 30). The experimental data were analyzed according to a 1:1 binding model by means of Origin 7.0.

**Q.** B1 was tested. Which binding stoichiometry did it give?
**A.** ~2

**Q.** B2 was tested. Which binding stoichiometry did it give?
**A.** ~2

**Q.** With B3 as the binder, how does the binding stoichiometry read?
**A.** ~2

**Q.** With B4 as the binder, how does the binding stoichiometry read?
**A.** ~2
